From the RNAGym collection of RNA variant scans (doi:10.1073/pnas.2313332121)
This sample holds only a part of the variants without activity.

B1: TPR 5TU (parent)
chain: GGAUCUUCUCGAUCUAACAAAAAAGACAAAUCUGCCACAAAGCUUGAGAGCAUCUUCGGAUGCAGAGGCGGCAGCCUUCGGUGGCGCGAUAGCGCCAACGUUCUCAACUAUGACACGCAAAACGCGUGCUCCGUUGAAUGGAGUUUAUCAUG

Variants of: B1
Assay: polymerase ribozyme fitness, log enrichment relative to wild type (log ratio); higher = more active; in vitro selection for triplet polymerase activity
In short: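 Streptavidin-bead capture of gel-excised extended constructs, followed by RT-PCR, closed a single triplicate in vitro selection round. That round began by annealing PCR-built, transcribed mutant libraries of each subunit of a heterodimeric triplet polymerase ribozyme with a biotinylated primer, the partner subunit and triplets, then incubating them frozen at −7 °C. After Illumina sequencing of inputs and outputs, genotypes needed ≥10 input reads and ≥1 read per output. Fitness is the base-2 logarithm of genotype enrichment over wild-type enrichment, using inverse-variance-weighted replicate averages.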

Variant	polymerase ribozyme fitness (log ratio)
G50C A52C C105A C125A A142C U146A	≤ -4.2
G50C C54U C85U C125U	-4.17
G50C C76A G83U C103A C132G U145G	≤ -4.2
A49U C57G U61A A73G G88C A97C U135A G152A	≤ -4.2
G50A G68C U77C U82G G92C	≤ -4.2
G50C U102G	-3.32
G50C C87U C123A C125G	-3.47
G50C C96G U144C	≤ -4.2
A49U G62C C123U	-2.38
A49U C116G C149U	-4.18
G50C A91G	-4
A49G U139A	-4.08
G50A G86U	-3.78
G50A G86A	-3.01
A49U U53A G92U C116A	-1.33
A49G U55A	-0.644
G50A G59C U90G	≤ -4.2
G50U G81A U102G	-2.74
G50A U55A G70A G83C U101A U104A C105G G124U	≤ -4.2
G50A C54U C85U C93U G94U G117A	-3.95
A49G U55A C79U G92U C95A G140A	≤ -4.2

Variant	polymerase ribozyme fitness (log ratio)
G50A C125U	-1.35
G50A G83C U146G	-2.55
G50A A91G C99U C103G	≤ -4.2
G50A G83C C93G A97C C132G A137G G140U	≤ -4.2
A49G G92C A115U	-3.24
G50A G92A A106G	≤ -4.2
G50U C51U C72U C93G U101C C108A G112U A113U A121G	≤ -4.2
G50U A120U C125G	-0.502
G50C C87U A150C U151A	≤ -4.2
G50U C79G A98U C99G	≤ -4.2
A49U U53A A64G G84U U90C C96A A97G G124U G140A	≤ -4.2
G50U G58U G59U C76A	≤ -4.2
G50U C57U A73U G86U G126U	≤ -4.2
G50C C57G U77A G81A G86C C96A G143A	≤ -4.2
G50C U56C C87G A89C G100C A120G C125U	≤ -4.2
G50U A66U C69G U135C	≤ -4.2
G50C A73G G84A	-4.1
G50U C85A U144A U145C	-1.01
A49U G88A	≤ -4.2
G50A U77G G81A A91U A97G A122U	≤ -4.2
G50A G62A G117A	-1.7

Variant	polymerase ribozyme fitness (log ratio)
G50U A122G	-0.236
G50C G94A A107G U134C	≤ -4.2
G50C C63G G94C C103A C132U	-4.08
G50C G141U	-2.26
G50C G94A C129U U135G	≤ -4.2
G50U C95G	-0.905
A49U C85G A115C	-3.64
G50A A66G	-3.75
G50C C54U G86A C108U	≤ -4.2
A49U U56G G81A G94A U146G	≤ -4.2
G50A A52C	-3.13
G50A A115G	-2.49
G50C A52C G86U C87A	≤ -4.2
G50U C57U G92C	-0.983
G50C C57U G59C C99G	≤ -4.2
G50U G70A G136U	≤ -4.2
G50U A106G	0.264
A49U U61A C87A G140C	≤ -4.2
A49U U101C C116U	-1.49
G50A U56A	-1.5
G50A U56C	-1.2

Variant	polymerase ribozyme fitness (log ratio)
G50C G117A	-2.37
G50C C54U	-2.6
G50A U55A C87G C103U C116G	≤ -4.2
A49U C103G	≤ -4.2
A49U G86A C87G A106C G136U A150C	≤ -4.2
A49U C96G	-0.972
G50A C93U	-3.07
G50C U78A G92A	≤ -4.2
G50C G92A C116U U151C	≤ -4.2
A49U C54G U55A G59A A60G U90G A106U G124C	≤ -4.2
G50A U82C	-0.783
G50A G86A C132U G143C C149G	≤ -4.2
G50C G71U C85A G124U	≤ -4.2
G50C G58A C125A	-3.17
G50C U104C C116A G143U	≤ -4.2
G50A A60C G86A	-3.81
A49U C54G C72A U82G A110U	≤ -4.2
G50C C51G A52U C76U G84U C105U C114U G133A	≤ -4.2
G50C G59A U145C	-3.51
G50C G84A U104C A106C	≤ -4.2
G50C G83U C93A G100U G124C G128U C132G U145G	≤ -4.2
